Measured values: the supplement of paper PMC9170038

system: MS2 coat protein; test: apparent KD of MS2 coat protein; higher = weaker reporter binding; conditions: Eterna round: R107; input ligand: theophylline 2 mM
Procedure: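 RNA-MaP round R107: designed RNA switches with theophylline, tryptophan, arginine or FMN aptamers are transcribed on-chip within common flanks. They are titrated with SNAP-549-labelled MS2 coat protein in RNA-MaP buffer (100 mM Tris pH 7.5, 80 mM KCl, 4 mM MgCl2), without ligand or with the indicated ligand. Median apparent KD per design.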

| Sequence | apparent KD of MS2 coat protein |
| --- | --- |
| GGACUAACCAGAAGGAGCGACACAAAGCAGAAACUGCAUCCUCCGCACGAGGAUCACCCGUGUCAGGUAGGUCGCUGGUUAGUCG [ArgBX 28] | 50.4 nM |
| GCACCAGGUACGGAUACCAGCUGCCACGGUUACAUGAGGAUCACCCAUGUGAUAAGGUGUAGCCCUUGGCAGCUGUACCUGGUGC [SSThB NP+V+V2 #7 +-Same Structure] | 411 nM |
| GUACACUAGUCGGCCGCCACUGUUACAUGAGGAUCACCCAUGUAGGAUCACCCAUGACAUGAGGAUAGGACCGGGACGCAUGAGG [Exclusion Tryptophan B] | 69 nM |
| GGACUAACCAGAAGGAGCGACGCGCAGAAACUGCAAUUUCCUCCACACGAGGAUCACCCGUGUCAGGUAGGUCGCUGGUUAGUCG | 17.6 nM |
| AAAGGUAGCAAUAAAUCUCCUACAUGUGAAGGAGCGCCCGAAAGGGCAGGUAGGUCGCACAUGAGGAUCACCCAUGUGAGCUACC [ArgEX 5 #SwitchBubble] | 21.2 nM |
| GGUAUGUAUUCGGAAACGAAUGCAUACCAACGAGGACCGGUACGGCCGCCACUCGCGGCUGAUCAACAUGAGGAUCACCCAUGUA [Ex Tryptophan A 4] | 31.5 nM |
| CACGAAAGAUCGGCCGCCACUAAUCUAUGUGUUCUUUCACAUGAGGAUCACCCAUGUUCUUGCGUUAGGACCGGGAUUGAGCGUG [#02 Exclusion Tryptophan B] | 36.6 nM |

same assay, conditions: Eterna round: R107; input ligand: tryptophan 2.4 mM

| Sequence | apparent KD of MS2 coat protein |
| --- | --- |
| AUCGUACCUAAUGAUACCAGCAAGUGAUCAUAACAUGAGGAUCACCCAUGUAAUCAGUGAUGCCCUUGGCAGCAUAAUCGAUACA [Same State - Theophylline B (Freestyle 3)] | 129 nM |
| GGGCGUGUGGCGCGGCGUGCUCCGCUCCGUCGAGGACCGGUACGGCCGCCACUCGACAUGAGGAUCACCCAUGUGCGAGCUCGCG [#1 Exclusion - Tryptophan A Attempt #11 (HarryS)] | 154 nM |
| UUCUUUAAGUCGGCCGCCACUGAAACAUGAGGAUCACCCAUGUAUAUUUGGGUAUAGGUGGAUUACAGGACCGGGACUAUAGUAA [JR_ExcTryptoB_Sub022] | 79.6 nM |
| GGGCAAGAGGGAAGGAGCGUCGGCUGAGUAACAUGAGGAUCACCCAUGUAGCACAUGGUGUGGCAGGUAGGUCGCCCUCUGCCCU [SS-ArgB8] | 118 nM |
| GCACCAGGUACGGAUACCAGCUGCCAGAGAUACAUGAGGAUCACCCAUGUGACCUGAUUUAGCCCUUGGCAGCUGUACCUGGUGC [SSThB NP+V+V2 #2 Same Structure] | 680 nM |
| GGCUGUCAUAGGAGGUCAAAUAUACUCGAAGGAGCGUCAUAGUAGGCAGGUAGGUCGCGAGACAUGAGGAUCACCCAUGUAGAGA [xkxmullin] | 30.6 nM |
| AACAACAAGGGAAGGAGCGCGAAUUAUAGACAUGAGGAUCACCCAUGUAACAUGGGAUUAACGCAGGUAGGUCGCCCACAAACAA [#08 Exclusion - Arginine B] | 117 nM |
| AGAGUUAGACAAAAGUCUAGCUCACCAGAAGGAGCGUCCGAAAGGACAGGUAGGUCGCUGGUACCUGAGGAUCACCCGGGUUCCU [ArgAS 17 #OpenEnded #AlternativeMS2] | 80.5 nM |
| GGGCCCGGGCCCGAUACCAGCAGAGAAAACAUAUAUCCUAACAUGAGGAUCACCCAUGUAUGCCCUUGGCAGCGGGCCCGGGCCC [#15 Exclusion-TheophyllineB] | 28.2 nM |
| UUCAGCUAGUCGGCCGCCACUACUUGAGGAUCACCCAGGUAAUCCUAACACUGCUUCGGCAGUGGUAGGACCGGGACUAGCUGAG | 103 nM |
| GAUGAACUAUAUGAUACCAGACAACAUGAGGAUCACCCAUGUGUAAGUCGUCCUCUGCCUGUCCCUUGGCAGCGUAUAGUUUAUC [XTheo B #18] | 23.3 nM |
| GGGUGCGGCACGGCCGCCACUGCGGUGGUGUGACAUGAGGAUCACCCAUGUUGUCAUGCGGCCCUUAGGACCGGGUGGCGUGCCU [#1 Exclusion - Tryptophan B Attempt #15 (HarryS)] | 38 nM |
| AAAUAAAUACAUGAGGAUCACCCAUGUGAAGGAGCGCGCGUUAGCGCAGGUAGGUCGCACAUGAAAGGGAAGCGAAAGAAAUAAU [MAT - Exclusion Arginine A - Mod of Eli - D16] | 22.2 nM |
| AGAUUAAAGAGUGAUACCAGACUACAUGAGGAUCACCCAUGUUACAUUUGAGUAGCUUUAGUCCCUUGGCAGCACUUUAUGUACA [JR_Nu_ExcTheophyB_Sub023] | 54.2 nM |
| GCAUAGUAAAAUGAUACCAGAGUCAAAACAGACAUGAGGAUCACCCAUGUGCAUAUACAACUCCCUUGGCAGCAUUAAAACGGGA [theeternabot_sameState_MS2_Theo_B_28] | 18.2 nM |
| GCUAGUGGCAGAAGGAGCGAGGCGACAUACGGGUACAUGAGGAUCACCCAUGUGGUGUGUCCUCAGGUAGGUCGCUGCCACUAGC [SSAB NP+V+V2 #12] | 521 nM |
| AAAGAUACCAGAGAUACCAGCCAAAAUUAAAAUAAAACCUCACAUGAGGAUCACCCAUGUGGCCCUUGGCAGCUCCCUUGGCAGC [#DoubbleAptamer 1] | 12.5 nM |
| GGCACCAGGAGAAGGAGCGUGAAGACAUGAGGAUCACCCAUGUAGAGGCCCGGACAGGGUUCGCAGGUAGGUCGCUCCUGGUGCC [#1 Same State - Arginine B Attempt #10 (HarryS)] | 47.2 nM |
| GGGUCGGGCGCGGCCGCCACUGCGGUGGUGUGACAUGAGGAUCACCCAUGUUGUCAUGCGGCCCUUAGGACCGGGCGCCCGGCCC [#1 Exclusion - Tryptophan B Attempt #11 (HarryS)] | 38.4 nM |
| GGACUAACCAGAAGGAGCGACACAAAGCAGAAACUGCAUCCUCCGCACGAGGAUCACCCGUGUCAGGUAGGUCGCUGGUUAGUCG [ArgBX 28] | 41.7 nM |
| GCACCAGGUACGGAUACCAGCUGCCACGGUUACAUGAGGAUCACCCAUGUGAUAAGGUGUAGCCCUUGGCAGCUGUACCUGGUGC [SSThB NP+V+V2 #7 +-Same Structure] | 258 nM |
| ACAUGAGGAUCACCCAUGUCUGCCACUGAUACCAGCGGAAGAAAACGCCCUUGGCAGCAGAACAUGAGGAUCACCCAUGUAGGCU [Same State Theophylline A GF29] | 140 nM |
| UGACAUUGCUCAGAUACCAGACAUGAGGAUCACCCAUGUACCAAGGUAAGAAAAUAACAUGUCCCUUGGCAGCUGAGCAAUGUCU [First try #MS2Left #Theo2] | 14.6 nM |
| AGAGGUGCAACAGAUACCAGUCUACCGUACCUCAGAGAACAUGAGGAUCACCCAUGUAUAGACCCUUGGCAGCUGAUGUUAUUCA [Theo B Ex t3] | 22.4 nM |
| GGACUAACCAGAAGGAGCGACGCGCAGAAACUGCAAUUUCCUCCACACGAGGAUCACCCGUGUCAGGUAGGUCGCUGGUUAGUCG | 16.6 nM |
| AGUACUCGAACGGAUACCAGCCGGACAUGAGGAUCACCCAUGUCCUACCAAUGUUCGGUUGGCCCUUGGCAGCCGUUCGUGUACA [Omei Theo B SS A v5] | 599 nM |
| AAAGGUAGCAAUAAAUCUCCUACAUGUGAAGGAGCGCCCGAAAGGGCAGGUAGGUCGCACAUGAGGAUCACCCAUGUGAGCUACC [ArgEX 5 #SwitchBubble] | 15.3 nM |
| UCUUUCUAUGUAGAUACCAGCAUGUUAUAUUUCUAAUGACAUGAGGAUCACCCAUGUAAAUGCCCUUGGCAGCUGCGUUUUCUUU [SSTHB #5] | 15.2 nM |
| GGUAUGUAUUCGGAAACGAAUGCAUACCAACGAGGACCGGUACGGCCGCCACUCGCGGCUGAUCAACAUGAGGAUCACCCAUGUA [Ex Tryptophan A 4] | 28.4 nM |
| ACAUGAGGAUCACCCAUGUCACGGCACGAUACCAGCUGAUCCGGUGGCCCUUGGCAGCGUGACGUUUGGUCCCGCGGAUGACACG [ppmullin] | 137 nM |
